In the RNAGym collection of RNA variant scans (doi:10.1101/gr.219683.116):

B1: mRNA-splicing (parent)
chain: AGUUGCUGCUGGGAGCUCCAGCACAGUGAAAUGGACAGAAGGGCAGAGCAA

Variants of: B1
Assay: exon inclusion enrichment index; higher = more inclusion; WT1 exon 5 minigene, HEK293

Variant | exon inclusion enrichment index
G5C C6U G8C C9U U10C G42A | 3.34
G5C C6U G8C C9U U10C G42C | 3.76
G5U C6A U7A C9A U10A | 0.0813
G5C C6U G8C C9U U10C G28C A29G | 2.82
G5C C6U G8C C9U U10C G28C A29C | 1.58
G5C C6U G8C C9U U10C G28C A29U | 1.13
G5C C6U U7G C9U U10C | 0.743
G5C C6U G8C C9U U10C G38A A39C | 1.48
G5C C6U G8C C9U U10C G38A A39G | 1.85
G5C C6U G8C C9U U10C G38A A39U | 0.134
G5U G8A C9G | 0.061
G5U G8A C9U | 0.205
G5U G8A C9A | 0.204
G5U G8U C9U A25G G26A | 0.765
G5U G8U C9U A25G G26C | 0.74
G5U G8U C9U A25G G26U | 0.38
G5C C6U U7A G8U C9A | 0.195
G5C C6U G8C C9U U10C U27C | 3.63
G5C C6U G8C C9U U10C U27G | 0.69
G5C C6U G8C C9U U10C U27A | 2.29
G5U C6U U7C G8A U10A | 0.0434
G5U C6U U7C G8A U10C | 1.85
G5U C6G U7C C9A U10C | 2.41
G5C C6U G8C C9U U10C G15U C16A | 1.38

Variant | exon inclusion enrichment index
G5C C6U G8C C9U U10C G15U C16U | 1.32
G5C C6U G8C C9U U10C G15U C16G | 1.44
G5U C6G U7C G8A U10C | 2.27
G5U C6G U7C G8A U10A | 0.1
G5C C6U G8C C9U U10C G43C | 1.75
G5C C6U G8C C9U U10C G43U | 1.51
G5C C6U G8C C9U U10C G43A | 3.52
G5U G8U C9U A23C | 0.1
G5U G8U C9U A23G | 0.252
G5U G8U C9U A23U | 0.0459
G5C C6U G8C C9U U10C G28A A29C | 1.12
G5C C6U G8C C9U U10C G28A A29U | 0.475
G5C C6U G8C C9U U10C G28A A29G | 0.736
G5C C6U G8C C9U U10C G46A | 2.05
G5C C6U G8C C9U U10C G46U | 1.35
G5C C6U G8C C9U U10C G46C | 1.62
G5C C6U G8C C9U U10C U17A | 1.95
G5C C6U G8C C9U U10C U17C | 1.43
G5C C6U G8C C9U U10C U17G | 1.65
G5C U7A G8U C9A | 0.077
G5C C6U G8C U10A | 0.518
G5C C6U G8C U10G | 1.68
G5C C6U G8C U10C | 2.2
G5U C6U G8C C9U U10C | 0.672

Variant | exon inclusion enrichment index
G5U C6A U7C G8A U10C | 1.56
G5U C6A U7C G8A U10A | 0.0713
G5C C6U G8C C9U U10C G34A A35U | 0.568
G5C C6U G8C C9U U10C G34A A35G | 0.76
G5C C6U G8C C9U U10C G34A A35C | 1.47
G5C C6U U7G G8A C9U U10C | 1.49
G5C C6U G8C C9U U10C U17A C18G | 1.83
G5C C6U G8C C9U U10C U17A C18A | 1.32
G5C C6U G8C C9U U10C U17A C18U | 1.58
G5C C6U G8C C9U U10C G26U U27A | 0.886
G5C C6U G8C C9U U10C G26U U27C | 3.41
G5C C6U G8C C9U U10C G26U U27G | 2.97
G5C C6U G8C C9U U10C G21A C22G | 1.93
G5C C6U G8C C9U U10C G21A C22A | 0.718
G5C C6U G8C C9U U10C G21A C22U | 0.846
G5C C6U U7G C9A | 1.42
G5C G8C C9U U10C | 0.273
G5U G8U | 1.33
G5U G8A | 1.23
G5U G8C | 1.34
G5C U10C | 1.29
G5C G8U C9U | 0.0356
G5C C6U G8C C9U U10C G33U G34A | 0.262
G5C C6U G8C C9U U10C G33U G34U | 0.282

Variant | exon inclusion enrichment index
G5C C6U G8C C9U U10C G33U G34C | 0.547
G5C U7C G8C C9U U10C | 0.0413
G5C C6U U7A G8A U10A | 0.064
G5C C6U G8C C9U U10C G41U | 2.03
G5C C6U G8C C9U U10C G41C | 3.06
G5C C6U G8C C9U U10C G41A | 1.33
G5U C6A U7C G8U C9U | 0.164
G5C C6U G8U C9U U10C | 0.615
G5U G8U C9U A25U G26U | 0.0927
G5U G8U C9U A25U G26C | 0.219
G5U G8U C9U A25U G26A | 0.176
G5C U7A G8A U10A | 0.0423
G5U C6U U7A G8U C9U | 0.0321
G5U C6U U7A G8U C9A | 0.0673
G5C C6U G8C C9U U10C G42C G43A | 2.79
G5C C6U G8C C9U U10C G42C G43C | 2.72
G5C C6U G8C C9U U10C G42C G43U | 2.87
G5C C6U U7C G8U C9U U10C | 1.35
G5C C6U U10C | 1.82
G5C C6U U7C G8A U10C | 1.77
G5C C6U U7C G8A U10A | 0.137
G5C C6U U7C C9U U10C | 3.09
G5U G8U C9U A14C G15C | 0.0167
G5U G8U C9U A14C G15A | 0.0209

Variant | exon inclusion enrichment index
G5U G8U C9U A14C G15U | 0.0169
G5C C6U G8C C9U U10C G26A U27G | 2.81
G5C C6U G8C C9U U10C G26A U27A | 1.96
G5C C6U G8C C9U U10C G26A U27C | 3.55
G5U G8U C9U A14G G15U | 0.0063
G5U G8U C9U A14G G15C | 0.0571
G5U G8U C9U A14G G15A | 0.0466
G5C U7G G8A U10A | 0.113
G5U G8U C9U A25G | 0.618
G5U G8U C9U A25U | 0.289
G5U G8U C9U A25C | 0.793
G5C C6U G8C C9U U10C G38U A39G | 0.734
G5C C6U G8C C9U U10C G38U A39U | 0.0819
G5C C6U G8C C9U U10C G38U A39C | 1.39
G5C C6U G8C C9U U10C G41U G42U | 1.74
G5C C6U G8C C9U U10C G41U G42A | 0.727
G5C C6U G8C C9U U10C G41U G42C | 2.93
G5U C6A U7G G8U C9U | 0.013
G5C U7C C9A U10C | 0.262
G5C C6U G8C C9U U10C G33A G34A | 0.246
G5C C6U G8C C9U U10C G33A G34C | 0.284
G5C C6U G8C C9U U10C G33A G34U | 0.283
G5U C6G | 0.00229
G5U C6U | 0.0058

Variant | exon inclusion enrichment index
G5U C6A | 0.00655
G5C C6U G8C C9U U10C G28A | 0.598
G5C C6U G8C C9U U10C G28C | 1.55
G5C C6U G8C C9U U10C G28U | 0.486
G5C C6U G8C C9U U10C U27G G28U | 0.00454
G5C C6U G8C C9U U10C U27G G28C | 1.04
G5C C6U G8C C9U U10C U27G G28A | 2.11
G5U G8U C9U A14U | 0.0126
G5U G8U C9U A14G | 0.0707
G5U G8U C9U A14C | 0.108
G5U C6U U7G C9A | 0.469
G5U G8U C9G U10A | 0.128
G5U G8U C9G U10G | 0.108
G5U G8U C9G U10C | 0.741
G5U G8U C9U A20G | 0.322
G5U G8U C9U A20C | 0.124
G5U G8U C9U A20U | 0.191
G5U G8U C9U A25C G26A | 0.504
G5U G8U C9U A25C G26U | 0.328
G5U G8U C9U A25C G26C | 0.215
G5U G8U C9U A29C | 0.0814
G5C C6U G8U U10C | 1.11
G5C C6U U7A G8U C9U U10C | 0.663
G5U G8U C9U A23C C24G | 0.632

Variant | exon inclusion enrichment index
G5U G8U C9U A23C C24U | 0.0326
G5U G8U C9U A23C C24A | 0.231
G5C C6U U7G G8U C9U U10C | 1.07
G5C G8A U10A | 0.0176
G5C C6U G8C C9U U10C G43U C44G | 0.398
G5C C6U G8C C9U U10C G43U C44U | 0.567
G5C C6U G8C C9U U10C G43U C44A | 0.0354
G5C C6U G8C C9U U10C G46A A47C | 2.56
G5C C6U G8C C9U U10C G46A A47G | 0.717
G5C C6U G8C C9U U10C G46A A47U | 2.29
G5U C6G U7A C9A U10A | 0.147
G5C C6U G8C C9U U10C G48U | 2.26
G5C C6U G8C C9U U10C G48A | 2.76
G5C C6U G8C C9U U10C G48C | 2.43
G5U C6G U7G C9A | 0.0617
G5C C6U G8C C9U U10C U32A G33U | 1.25
G5C C6U G8C C9U U10C U32A G33A | 0.758
G5C C6U G8C C9U U10C U32A G33C | 2.37
G5C U7G C9A | 1.66
G5C C6U G8C C9U U10C G33C G34U | 1.29
G5C C6U G8C C9U U10C G33C G34C | 1.12
G5C C6U G8C C9U U10C G33C G34A | 1.24
G5U C6U G8U C9U | 0.0204
